Key:
[1] = biological target: TycB1-His6, TycB1[COM^A-C-A-PCP] (construct 17), holo-form
[2] = biological target: TycB1(S5Bpa)-His6, TycB1[COM^A-C-A-PCP] with p-benzoylphenylalanine at Ser5 (construct 25), holo-form; test: cross-linking

| D-Phe-L-Pro-DKP production with TycB1, normalised to wild-type TycA [1] [%] | L-crosslink intensity relative to WT TycA [2] [%] | T-crosslink intensity relative to WT TycA [2] [%] | Substance |
| --- | --- | --- | --- |
| 9 | 38 | 5 | SBP-TycA ΔV1059 to K1069, seam and lid deletion mutant (construct 19), holo-form (enzyme) |
|  |  | 33 | SBP-TycA with the single V1059 in the seam region deleted (construct 23), holo-form (enzyme) |
|  |  | 46 | SBP-TycA P1063A, mutation in the lid (construct 24), holo-form (enzyme) |

From article doi:10.1101/2025.06.08.658476
